Values joined by “and” are separate entries in the source; they are usually repeats but may differ in a detail not shown here. Identical values can stand only once.
Conditions: Saccharomyces cerevisiae (strain ATCC 204508 / S288c), pH 5, CD, Sodium acetate buffer, reversible: yes

Sequence of Cytochrome c isoform 1 wild type, P00044 (P00044 whole entry, canonical isoform): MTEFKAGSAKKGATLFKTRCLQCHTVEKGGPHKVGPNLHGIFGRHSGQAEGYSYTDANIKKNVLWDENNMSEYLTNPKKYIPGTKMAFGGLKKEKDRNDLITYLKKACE

Cytochrome c isoform 1 wild type, P00044
denaturant m value (5 °C, GdnHCl): 5.4 kcal/mol/M | denaturant midpoint (higher = more stable) (5 °C, GdnHCl): 1.4 M | unfolding free energy (5 °C, GdnHCl): 7.8 kcal/mol | unfolding enthalpy (calorimetric) (Thermal): 91.8 kcal/mol and 42.8 kcal/mol

Reference: FireProtDB (doi:10.1021/bi962155i)
